Patent publication US20250066498A1 (GO THERAPEUTICS, published 2025)
Residue numbers refer to the chain shown, from its start. Read-outs that look alike come from different tables or passages of the source. One block for each binder: values may come before it. Ends that are not written are not given here. GalNAc = N-acetylgalactosamine O-linked to a serine or threonine side chain

Tests used:
[1] = target: T1, Tn-glycosylated LAMP1 on COSMC knock-out cells (human, UniProt P11279 29-417, Truncated O-glycans (Tn, GalNAc alpha1-O-Ser/Thr), because the COSMC chaperone is knocked out); assay: cell-based or functional assay
T1 sequence (looked up): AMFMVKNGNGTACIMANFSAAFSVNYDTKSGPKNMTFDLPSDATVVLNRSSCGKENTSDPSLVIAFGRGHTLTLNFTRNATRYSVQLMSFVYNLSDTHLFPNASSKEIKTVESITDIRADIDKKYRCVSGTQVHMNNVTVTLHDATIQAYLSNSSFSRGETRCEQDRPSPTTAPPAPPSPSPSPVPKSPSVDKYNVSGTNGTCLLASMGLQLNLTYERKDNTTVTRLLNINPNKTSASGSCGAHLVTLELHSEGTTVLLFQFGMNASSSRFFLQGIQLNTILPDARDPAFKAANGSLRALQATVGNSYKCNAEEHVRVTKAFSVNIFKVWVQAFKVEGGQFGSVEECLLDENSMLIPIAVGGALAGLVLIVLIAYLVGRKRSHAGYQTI

[2] = target: T2, LAMP1 without Tn glycans on wild type cells (human, UniProt P11279 29-417, No Tn antigen (the wild type cells are Tn-negative)); assay: cell-based or functional assay
T2 sequence (looked up): T1 sequence (looked up)

[3] = target: T1, Tn-glycosylated LAMP1 on COSMC …; assay: cell-based or functional assay; remark: listed apart in the source
[4] = target: T2, LAMP1 without Tn glycans on wild type …; assay: cell-based or functional assay; remark: listed apart in the source
[5] = target: T1, Tn-glycosylated LAMP1 on COSMC …; assay: cell-based or functional assay; remark: listed apart in the source
[6] = target: T3, podoplanin glycopeptide ERGTKPPLEELSGK; assay: BLI (Octet), peptide on biosensor, apparent affinity (Example 3)
T3 construct: also called PDPN glycopeptide; Tn antigen derived from podoplanin
T3 peptide: ERGT(GalNAc)KPPLEELSGK
Method: Antibody affinity and epitope binning of monoclonal antibodies can be assessed against specific antigens using BLI. […] The affinity is determined by fitting the binding curve to a specific model: a 1:1 monovalent model or a 2:1 bivalent model. The error (>95% confidence) is calculated by how close the generated curve matches the model.
To characterize the cross-reactivity between mAb237 the anti-glyco-LAMP1 antibodies 3C7, 13C3, and 13G2, the affinities of mAb237, 3C7, 13C3, and 13G2 against the glycosylated LAMP1 peptide, the unglycosylated LAMP1 peptide, and the podoplanin glycopeptide were determined by Octet. Table 8 summarizes the dissociation constants (Kd) for mAb237, 3C7, 13C3, and 13G2 against the glycosylated LAMP1 peptide, the unglycosylated LAMP1 peptide, and the podoplanin glycopeptide. No cross reactivity was observed despite the sequence similarities observed between mAb237 and 3C7, 13C3, and 13G2.

[7] = target: T4, LAMP1-Tn peptide Biotin-CEQDRPSPTTAPPAPPSPSP (human, N-terminal biotin; O-linked GalNAc on the serine at position 7 and the threonines at positions 9 and 10); assay: ELISA on plate-coated LAMP1-GP
T4 construct: Synthetic 20-mer glycopeptide made by FMOC synthesis; also called LAMP1 glycopeptide; glycosylated LAMP1 peptide
T4 peptide: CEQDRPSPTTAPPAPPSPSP
Method: 96-well Corning high bind ELISA microplates plates were coated with LAMP1 peptides titrated in 0.2 M bicarbonate buffer, pH 9.4 overnight at 4° C. in concentrations ranging from 0.08 μg/ml to 10 μg/ml. BSA was used as a control/measure of background. The plates were then blocked with SuperBlock™ (Thermo Fisher) for 1 hr at room temperature. After plate washing, the humanized variants of 13C3 were incubated on the ELISA plate for 1 hour. All tested variants were expressed and purified using conventional methods. Briefly, Expi-293 cells were transiently transfected with heavy and light chain constructs, antibodies were secreted into supernatant and purified using Protein A agarose beads. The plates were then washed, and then incubated with secondary antibody (1/3000 Goat Anti-mouse IgG (H+L) HRP (Abcam 62-6520)) for 1 hour. The plate was then washed and color was developed with 1-Step™ Ultra TMB (Thermo Fisher) for 2 minutes. Color development was then stopped with 2 N Sulfuric Acid. Absorbance at 450 nm was then measured.

[8] = target: T4, LAMP1-Tn peptide …; assay: BLI (Octet), LAMP1-GP on biosensor

B1: 13G2-ADC (GGFG-DX8951) (other)
VH: EVRLEESGGGLVQPGGSMKLSCVASGFTFSDAWMDWVRQSPERGLEWVAELRSKTFNHATYYAESVRGRFTISRDDSKSTVYLQMNSLRAEDTGIYYCSPNWDEGFAYWGQGTLVTVSA
VL: DVVMTQIPLSLCVSLGDQASISCRSSQSLVHNNGNTYLHWYLQKPGQSPKLLINKVSKRFTGVPDRFSGSGSGTDFTLKISRVEAEDLGVYFCSQSTHVPRTFGGGTKLEIK
modifications: MC-GGFG-DX8951 covalently attached to the antibody (maleimide); site not stated; DAR ~5.6
- IC50 for cell death, T47D COSMC-KO cells [1]: 5.6 nM
- IC50 for cell death, T47D cells [2]: 4.4 nM

B2: GO-13C3 mouse (vc-PAB-MMAE ADC) (other)
VH: B1 VH with R3K, E6D, V23A, Q39H, R43K, T55A, R67K, S99T
VL: B1 VL with I7T, C12P, N32S, K58N, T61S
modifications: Cleavable MMAE with maleimide (vc-PAB-MMAE) covalently linked; site not stated; DAR ~4
- IC50 for cell death, T47D COSMC-KO cells [3]: 4.5 nM
- IC50 for cell death, T47D cells [4]: > 100000 nM

B3: 3C7-ADC (GGFG-DX8951) (other)
VH: EVKLEESGGGLVQPGGSMKVSCGASGFTFSDAWMDWVRQSPEKGLEWVAEMRSKAFNHAIYYAESVKGRFTISRDDSKSRVYLQMNLLRPEDTGIYYCTPNWDEGFAYWGQGTLVTVSA
VL: B1 VL with V3M, M4L, I7T, C12P, N32S, K58N, T61F
modifications: MC-GGFG-DX8951 covalently attached to the antibody (maleimide); site not stated; the DAR could not be calculated
- IC50 for cell death, T47D COSMC-KO cells [1]: 4.5 nM
- IC50 for cell death, T47D cells [2]: 504 nM

B4: 13C3-ADC (GGFG-DX8951) (other)
VH: B1 VH with R3K, E6D, V23A, Q39H, R43K, T55A, R67K, S99T
VL: B1 VL with I7T, C12P, N32S, K58N, T61S
modifications: MC-GGFG-DX8951 covalently attached to the antibody (maleimide); site not stated; DAR ~3.1
- IC50 for cell death, T47D COSMC-KO cells [1]: 5.6 nM
- IC50 for cell death, T47D cells [2]: 205 nM

B5: 13C3-CART (other)
chain: DVVMTQTPLSLPVSLGDQASISCRSSQSLVHSNGNTYLHWYLQKPGQSPKLLINKVSNRFSGVPDRFSGSGSGTDFTLKISRVEAEDLGVYFCSQSTHVPRTFGGGTKLEIKGGGGSGGGGSGGGGSEVKLEDSGGGLVQPGGSMKLSCAASGFTFSDAWMDWVRHSPEKGLEWVAELRSKAFNHATYYAESVKGRFTISRDDSKSTVYLQMNSLRAEDTGIYYCTPNWDEGFAYWGQGTLVTVSATTTPAPRPPTPAPTIASQPLSLRPEACRPAAGGAVHTRGLDFACDFWVLVVVGGVLACYSLLVTVAFIIFWVRSKRSRLLHSDYMNMTPRRPGPTRKHYQPYAPPRDFAAYRSRVKFSRSADAPAYQQGQNQLYNELNLGRREEYDVLDKRRGRDPEMGGKPRRKNPQEGLYNELQKDKMAEAYSEIGMKGERRRGKGHDGLYQGLSTATKDTYDALHMQALPPR
- Time to kill 50% of cells (KT50), HaCAT COSMC-KO target cells, T cell ratio 10:1 [5]: 7.3 h

B6: 13G2-CART (other)
chain: DVVMTQIPLSLCVSLGDQASISCRSSQSLVHNNGNTYLHWYLQKPGQSPKLLINKVSKRFTGVPDRFSGSGSGTDFTLKISRVEAEDLGVYFCSQSTHVPRTFGGGTKLEIKGGGGSGGGGSGGGGSEVRLEESGGGLVQPGGSMKLSCVASGFTFSDAWMDWVRQSPERGLEWVAELRSKTFNHATYYAESVRGRFTISRDDSKSTVYLQMNSLRAEDTGIYYCSPNWDEGFAYWGQGTLVTVSATTTPAPRPPTPAPTIASQPLSLRPEACRPAAGGAVHTRGLDFACDFWVLVVVGGVLACYSLLVTVAFIIFWVRSKRSRLLHSDYMNMTPRRPGPTRKHYQPYAPPRDFAAYRSRVKFSRSADAPAYQQGQNQLYNELNLGRREEYDVLDKRRGRDPEMGGKPRRKNPQEGLYNELQKDKMAEAYSEIGMKGERRRGKGHDGLYQGLSTATKDTYDALHMQALPPR
- Time to kill 50% of cells (KT50), HaCAT COSMC-KO target cells, T cell ratio 10:1 [5]: 8.75 h

- Kd [6]: 1.53 nM
B7: mAb237 (antibody, V domains shown)
VH: QVQLQQSGGGLVQPGGSMKIFCAASGFTFSDAWMDWVRQSPEKGLEWVAEIRNKANNHETYYAESVKGRFTITRDDSKSRMSLQMNSLRAEDTGIYYCSGGKVRNAYWGQGTTVTVSS
VL: DIQLTQTPLSLPVSLGDQASISCRSSQSLVHSVGNTYLHWYLQKPGQSPKLLIYKVSNRFSGVPDRFSGSGSGTDFTLKISSVEAEDLGVYFCSQSTHVPTFGGGTKLEIK
notes: Recombinant mouse antibody bought from Creative Biolabs (Brooks et al., 2010), specific for the podoplanin Tn glycopeptide; also called wild type mAb237

B8: GO-13C3-Human-v1 (vc-PAB-MMAE ADC) (other)
VH: EVQLVESGGGLVQPGGSLRLSCAASGFTFSDAWMDWVRHAPGKGLEWVAELRSKAFNHATYYAESVKGRFTISRDDSKNSVYLQMNSLKTEDTAVYYCTPNWDEGFAYWGQGTLVTVSS
VL: DVVMTQSPLSLPVTLGQPASISCRSSQSLVHSNGNTYLHWYQQRPGQSPRLLINKVSNRFSGVPDRFSGSGSGTDFTLKISRVEAEDVGVYFCSQSTHVPRTFGGGTKVEIK
modifications: Cleavable MMAE with maleimide (vc-PAB-MMAE) covalently linked; site not stated; DAR ~4
- IC50 for cell death, T47D COSMC-KO cells [3]: 5.03 nM
- IC50 for cell death, T47D cells [4]: > 100000 nM

- EC50 [7]: 0.0191 µg/mL
- Kd [8]: 0.85 nM
B9: 13C3-HV-23-B/13C3 KV2-A (antibody, V domains shown)
VH: B8 VH with V5L, H39Q, A49S, S80T, V81L, K89R, T90A
VL: B8 VL
notes: Humanized 13C3; also called HV23B/KV2A; humanized 13C3 candidate 3

B10: GO-13C3-Human-v2 (vc-PAB-MMAE ADC) (other)
VH: B8 VH with V5L, H39Q, A49S, S80T, V81L, K89R, T90A
VL: B8 VL
modifications: Cleavable MMAE with maleimide (vc-PAB-MMAE) covalently linked; site not stated; DAR ~4
- IC50 for cell death, T47D COSMC-KO cells [3]: 5.4 nM
- IC50 for cell death, T47D cells [4]: > 100000 nM

- EC50 [7]: 0.0155 µg/mL
- Kd [8]: 23.5 nM
B11: 13C3-HV-23-C/13C3 KV2-A (antibody, V domains shown)
VH: B8 VH with V5L, H39Q, A49S, L51I, K54S, S80T, V81L, K89R, T90A
VL: B8 VL
notes: Humanized 13C3; also called humanized 13C3 candidate 5

- EC50 [7]: 0.0262 µg/mL
- Kd [8]: 3.1 nM
B12: 13C3-HV-72-A/13C3 KV2-A (antibody, V domains shown)
VH: B8 VH
VL: B8 VL
notes: Humanized 13C3; also called HV-72A/KV2A; humanized 13C3 candidate 2

- EC50 [7]: 0.0257 µg/mL
- Kd [8]: 8.2 nM
B13: 13C3-HV-72-B/13C3 KV2-A (antibody, V domains shown)
VH: B8 VH with H39Q, A49G, V81L
VL: B8 VL
notes: Humanized 13C3; also called humanized 13C3 candidate 4
